{
  "source": "patent US20250281587A1",
  "about": "(ELANCO US, published 2025)",
  "binders": {"B1": {"name": "purified feline IL-1β wild type (ligand)", "chain": "MGSAAIQSQDYTFRDISQKSLVLSGSYELRALHLNGQNMNQQVVFRMSFVHGEENSKKIPVVLCIKKNNLYLSCVMKDGKPTLQLEMLDPKVYPKKKMEKRFVFNKTEIKGNVEFESSQFPNWYISTSQAEEMPVFLGNTKGGQDITDFIMESASTSHHHHHHGGCG", "notes": "also called purified wild type feline IL-1β; recombinant feline wild type IL-1β"}},
  "target": "T1, recombinant mouse IL-1RI Fc chimera (R&D 771-MR-100) (mouse, UniProt P13504 20-338)",
  "T1 construct": "Coated on ELISA plates at 1 µg/ml; Used instead of canine or feline IL-1RI, which were not commercially available; also called IL-1RI receptor; Fc part of the bought chimera not given",
  "T1 sequence (looked up)": "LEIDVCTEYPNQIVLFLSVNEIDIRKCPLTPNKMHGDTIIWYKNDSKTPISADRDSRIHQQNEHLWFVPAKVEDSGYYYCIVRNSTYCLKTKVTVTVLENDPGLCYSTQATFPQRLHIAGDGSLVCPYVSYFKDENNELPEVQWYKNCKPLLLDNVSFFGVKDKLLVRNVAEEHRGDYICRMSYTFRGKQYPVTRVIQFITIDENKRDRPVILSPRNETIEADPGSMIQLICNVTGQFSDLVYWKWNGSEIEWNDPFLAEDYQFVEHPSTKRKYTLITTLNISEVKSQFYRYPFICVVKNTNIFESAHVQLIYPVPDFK",
  "test": "ELISA, mouse IL-1RI Fc chimera coated, detection with biotinylated anti-fIL-1β antibody",
  "data": [
    {"binder": "B1", "values": [
      {"measurement": "binding result", "result": "binds"}
    ]}
  ]
}
